Results as given in patent US20200369765A1 (INNATE PHARMA, published 2020).

T1: Human Siglec-10 (human, UniProt Q96LC7 17-697)
T1 construct: Expressed on transfected CHO cells; also called HuSiglec-10
T1 sequence: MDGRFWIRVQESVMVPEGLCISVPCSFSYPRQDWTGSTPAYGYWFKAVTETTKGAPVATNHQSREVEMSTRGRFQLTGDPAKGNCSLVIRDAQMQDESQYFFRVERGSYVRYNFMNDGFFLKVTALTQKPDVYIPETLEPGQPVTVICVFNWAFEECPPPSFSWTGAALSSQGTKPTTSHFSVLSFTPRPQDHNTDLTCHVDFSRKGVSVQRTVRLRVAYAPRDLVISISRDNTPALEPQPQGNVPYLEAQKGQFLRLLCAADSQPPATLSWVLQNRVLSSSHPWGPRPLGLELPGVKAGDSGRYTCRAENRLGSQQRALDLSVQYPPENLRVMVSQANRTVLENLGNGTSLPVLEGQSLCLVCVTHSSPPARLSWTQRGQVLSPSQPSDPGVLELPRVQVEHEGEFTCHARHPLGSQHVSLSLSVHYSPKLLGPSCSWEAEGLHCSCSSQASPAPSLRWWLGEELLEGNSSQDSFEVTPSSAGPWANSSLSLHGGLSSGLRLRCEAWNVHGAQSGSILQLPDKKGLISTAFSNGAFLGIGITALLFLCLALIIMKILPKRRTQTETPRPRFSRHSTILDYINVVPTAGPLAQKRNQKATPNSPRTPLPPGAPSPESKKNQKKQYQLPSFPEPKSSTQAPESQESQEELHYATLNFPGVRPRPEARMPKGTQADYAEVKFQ

T2: Human Siglec-5 (human, UniProt O15389 17-551)
T2 construct: Expressed on transfected CHO cells; also called HuSiglec-5
T2 sequence: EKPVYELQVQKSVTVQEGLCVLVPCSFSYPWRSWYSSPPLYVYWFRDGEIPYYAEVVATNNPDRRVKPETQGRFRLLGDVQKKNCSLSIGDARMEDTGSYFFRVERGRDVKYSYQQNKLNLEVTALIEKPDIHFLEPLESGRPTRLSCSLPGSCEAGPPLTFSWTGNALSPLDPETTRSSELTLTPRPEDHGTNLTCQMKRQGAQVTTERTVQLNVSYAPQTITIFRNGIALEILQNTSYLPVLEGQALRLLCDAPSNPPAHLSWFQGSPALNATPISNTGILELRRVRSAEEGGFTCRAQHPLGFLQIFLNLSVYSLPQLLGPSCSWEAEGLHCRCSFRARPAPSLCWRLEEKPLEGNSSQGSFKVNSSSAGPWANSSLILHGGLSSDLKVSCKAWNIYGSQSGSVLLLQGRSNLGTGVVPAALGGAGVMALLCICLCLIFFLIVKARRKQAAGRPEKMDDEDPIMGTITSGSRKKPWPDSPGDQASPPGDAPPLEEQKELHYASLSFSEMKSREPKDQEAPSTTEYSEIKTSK

T3: Human Siglec-11 (human, UniProt Q96RL6 29-698)
T3 construct: Expressed on transfected CHO cells; also called HuSiglec-11
T3 sequence: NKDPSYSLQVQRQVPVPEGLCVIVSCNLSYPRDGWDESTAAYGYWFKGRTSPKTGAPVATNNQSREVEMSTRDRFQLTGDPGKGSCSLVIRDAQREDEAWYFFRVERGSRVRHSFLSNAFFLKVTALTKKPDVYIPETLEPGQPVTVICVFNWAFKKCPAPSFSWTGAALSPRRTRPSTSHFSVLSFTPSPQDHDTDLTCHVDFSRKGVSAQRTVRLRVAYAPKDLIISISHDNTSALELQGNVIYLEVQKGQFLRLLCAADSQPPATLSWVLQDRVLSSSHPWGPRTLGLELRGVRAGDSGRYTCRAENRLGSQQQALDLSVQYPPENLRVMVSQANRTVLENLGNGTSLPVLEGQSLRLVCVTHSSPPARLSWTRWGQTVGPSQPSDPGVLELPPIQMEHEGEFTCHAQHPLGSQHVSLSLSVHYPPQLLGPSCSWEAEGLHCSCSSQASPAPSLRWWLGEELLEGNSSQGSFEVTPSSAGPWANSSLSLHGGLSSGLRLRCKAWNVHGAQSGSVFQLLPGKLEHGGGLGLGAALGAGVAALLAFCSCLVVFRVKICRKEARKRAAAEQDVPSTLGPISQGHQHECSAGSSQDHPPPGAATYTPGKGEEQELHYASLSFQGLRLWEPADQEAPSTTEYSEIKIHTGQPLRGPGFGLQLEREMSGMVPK


What was measured:
[1] = target: T4, Human Siglec-9 N-terminal V-set Ig-like domain (human); assay: flow cytometry, HEK293T cells expressing single Siglec-9 domains
T4 construct: expressed on HEK293T cells

Human Siglec-10 = target: T1, Human Siglec-10; assay: flow cytometry, CHO transfectants
Human Siglec-5 = target: T2, Human Siglec-5; assay: flow cytometry, CHO transfectants
Human Siglec-7 = target: T5, Human Siglec-7 (human, UniProt Q9Y286 19-467); assay: flow cytometry, CHO transfectants
T5 construct: Expressed on transfected CHO cells; also called huSiglec-7; CD328
T5 sequence (Q9Y286 19-467): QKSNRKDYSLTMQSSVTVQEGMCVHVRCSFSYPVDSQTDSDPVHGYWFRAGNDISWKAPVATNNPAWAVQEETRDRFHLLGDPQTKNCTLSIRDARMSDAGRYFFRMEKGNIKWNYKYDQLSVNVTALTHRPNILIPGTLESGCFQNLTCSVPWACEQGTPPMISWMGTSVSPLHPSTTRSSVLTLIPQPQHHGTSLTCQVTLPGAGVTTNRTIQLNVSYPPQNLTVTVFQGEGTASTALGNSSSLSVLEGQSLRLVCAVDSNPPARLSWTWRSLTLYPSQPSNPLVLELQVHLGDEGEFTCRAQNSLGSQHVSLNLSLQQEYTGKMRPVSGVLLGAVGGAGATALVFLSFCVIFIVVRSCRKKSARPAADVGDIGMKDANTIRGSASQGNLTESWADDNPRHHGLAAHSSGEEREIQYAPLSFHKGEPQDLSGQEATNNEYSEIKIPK

Human Siglec-11 = target: T3, Human Siglec-11; assay: flow cytometry, CHO transfectants
Human Siglec-6 = target: T6, Human Siglec-6 (human, UniProt O43699 27-453); assay: flow cytometry, CHO transfectants
T6 construct: Expressed on transfected CHO cells; also called HuSiglec-6
T6 sequence (O43699 other isoform, or with tags, fused parts or gaps): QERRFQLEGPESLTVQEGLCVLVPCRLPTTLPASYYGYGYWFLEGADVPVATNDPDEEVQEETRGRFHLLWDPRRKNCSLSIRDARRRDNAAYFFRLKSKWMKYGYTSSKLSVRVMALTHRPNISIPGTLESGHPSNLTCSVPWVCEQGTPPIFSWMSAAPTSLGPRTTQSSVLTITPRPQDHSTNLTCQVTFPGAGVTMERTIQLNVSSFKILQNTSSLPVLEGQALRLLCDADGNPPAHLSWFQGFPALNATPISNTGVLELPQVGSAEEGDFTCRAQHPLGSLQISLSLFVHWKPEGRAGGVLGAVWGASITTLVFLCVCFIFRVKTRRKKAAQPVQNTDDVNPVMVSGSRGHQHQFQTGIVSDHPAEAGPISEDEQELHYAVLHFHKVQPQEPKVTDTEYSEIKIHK

Human Siglec-12 = target: T7, Human Siglec-12 (human, UniProt Q96PQ1 19-595); assay: flow cytometry, CHO transfectants
T7 construct: Expressed on transfected CHO cells; also called HuSiglec-12
T7 sequence (Q96PQ1 19-595): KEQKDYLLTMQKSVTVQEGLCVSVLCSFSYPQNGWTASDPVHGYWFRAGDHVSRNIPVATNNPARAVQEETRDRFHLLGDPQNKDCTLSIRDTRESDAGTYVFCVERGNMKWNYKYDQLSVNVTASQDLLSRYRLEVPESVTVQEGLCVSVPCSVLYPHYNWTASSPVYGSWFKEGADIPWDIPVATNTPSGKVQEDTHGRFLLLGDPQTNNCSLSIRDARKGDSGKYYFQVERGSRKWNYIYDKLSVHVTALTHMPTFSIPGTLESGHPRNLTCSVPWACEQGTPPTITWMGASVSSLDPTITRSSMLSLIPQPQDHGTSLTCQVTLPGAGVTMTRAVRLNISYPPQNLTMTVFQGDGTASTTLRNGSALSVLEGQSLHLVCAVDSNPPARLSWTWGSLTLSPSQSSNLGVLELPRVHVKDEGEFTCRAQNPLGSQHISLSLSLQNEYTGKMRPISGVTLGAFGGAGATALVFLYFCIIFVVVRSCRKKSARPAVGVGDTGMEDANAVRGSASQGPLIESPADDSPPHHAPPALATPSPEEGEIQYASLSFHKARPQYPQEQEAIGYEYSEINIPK

Human Siglec-3 = target: T8, Human Siglec-3 (human, UniProt P20138 18-364); assay: flow cytometry, CHO transfectants
T8 construct: Expressed on transfected CHO cells; also called HuSiglec-3; CD33
T8 sequence (P20138 18-364 R69G): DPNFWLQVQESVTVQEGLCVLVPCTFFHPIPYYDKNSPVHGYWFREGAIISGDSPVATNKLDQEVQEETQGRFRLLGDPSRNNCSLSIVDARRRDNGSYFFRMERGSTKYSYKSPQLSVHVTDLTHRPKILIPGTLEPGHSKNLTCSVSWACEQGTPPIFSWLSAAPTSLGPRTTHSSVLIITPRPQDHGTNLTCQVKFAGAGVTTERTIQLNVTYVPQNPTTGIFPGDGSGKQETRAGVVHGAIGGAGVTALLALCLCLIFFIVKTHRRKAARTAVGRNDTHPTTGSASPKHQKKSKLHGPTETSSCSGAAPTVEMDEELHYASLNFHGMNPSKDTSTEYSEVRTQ

Human Siglec-8 = target: T9, Human Siglec-8 (human, UniProt Q9NYZ4 17-499); assay: flow cytometry, CHO transfectants
T9 construct: Expressed on transfected CHO cells; also called HuSiglec-8
T9 sequence (Q9NYZ4 17-499): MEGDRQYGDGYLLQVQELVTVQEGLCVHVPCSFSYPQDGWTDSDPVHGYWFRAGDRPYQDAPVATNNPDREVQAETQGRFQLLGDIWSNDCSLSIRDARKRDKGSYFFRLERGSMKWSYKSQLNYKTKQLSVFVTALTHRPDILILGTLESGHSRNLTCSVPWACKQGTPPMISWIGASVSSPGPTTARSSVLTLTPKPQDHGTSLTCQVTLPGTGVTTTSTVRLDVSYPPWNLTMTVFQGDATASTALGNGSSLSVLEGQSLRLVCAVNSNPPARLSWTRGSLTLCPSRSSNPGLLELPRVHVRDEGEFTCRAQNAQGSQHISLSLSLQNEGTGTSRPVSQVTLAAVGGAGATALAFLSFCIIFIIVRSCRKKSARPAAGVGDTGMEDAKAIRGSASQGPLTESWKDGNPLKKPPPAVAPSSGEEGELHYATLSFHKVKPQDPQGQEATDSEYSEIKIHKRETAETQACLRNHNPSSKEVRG

binding result [1]	binding result (Human Siglec-10)	binding result (Human Siglec-5)	binding result (Human Siglec-7)	binding result (Human Siglec-11)	binding result (Human Siglec-6)	binding result (Human Siglec-12)	binding result (Human Siglec-3)	binding result (Human Siglec-8)	Binder
binds	no binding	no binding	no binding	no binding	no binding	no binding	no binding	no binding	mAbE (antibody, human IgG1, V domains shown) VH: DVQLVESGGGLVQPGGSRKLSCAASGFTFSTFGMHWVRQAPEKGLEWVAYISSGSNAIYYADTVKGRFTISRDNPKNTLFLQMTSLRSEDTAMYYCASPGYGAWFAYWGQGTLVTVSA VL: ENVLTQSPAIMSASPGEKVTMTCRASSSVSSAYLHWYQQKSGASPKLWIYSTSNLASGVPARFSGSGSGTSYSLTISSVEAEDAATYYCQQYSAYPYTFGGGTKLEIK
binds	no binding	no binding	no binding	no binding	no binding	no binding	no binding	no binding	mAbD (antibody, human IgG1, V domains shown) VH: QIQLVQSGPELKKPGETVKISCKASGYTFTDYSMHWVKQAPGKGLKWMGWIITETGEPTYADDFRGRFAFSLETSANTAYLQINNLKNEDTATYFCARDFDGYWGQGTTLTVSS VL: DILMTQSPASLSASVGETVTITCRASENIYSYLAWYQQKRGKSPQFLVYNAKTLTEGVPSRFRGSGSGTQFSLKINSLQPEDFGTYYCQHHYGFPWTFGGGTKLEIK
binds	no binding	no binding	no binding	no binding	no binding	no binding	no binding	no binding	mAbF (antibody, human IgG1, V domains shown) VH: QVQLQQSGPEVVRPGVSVKISCKGSGYTFTDYSMHWVKQSHAKSLEWIGVISTYNGNTNYNQKFKGKATMTVDKSSSTAYMELARLTSEDSAIYYCARRGYYGSSSWFGYWGQGTLVTVSA VL: DIVMTQSQKFMSTSVGDRVSVTCKASQNVGTDVAWYQQKPGQSPEALIYSASYRYSGVPDRFTGSGSGADFTLTISNVQSEDLAEYFCQQYNSFPYTFGGGTKLEIK
binds	no binding	no binding	no binding	no binding	no binding	no binding	no binding	no binding	mAbB (antibody, human IgG1, V domains shown) VH: QVQLQQPGAELVKPGASVKLSCKASVYTFTSYWMHWVKQRPGQGLEWIGEINPSNGHTNYNEKFKTKAKLTVDKSSSTAYMQLSSLTSEDSAVYFCANGVETYDFDDAMDYWGQGTSVTVSS VL: DIQMTQTTSSLSASLGDRVTISCRASQDINNYLNWYQQKPDGTVKLLIYFTSRLHSGVPSRFSGSGSGTDYSLTISNLEQEDIATYFCQQGDTFPFTFGGGTKLEIK
